Data as given in patent publication US20240002497A1 (Merck Sharp & Dohme, published 2024).
Positions count from the first letter of the chain named. Numbers in names are those of the source. Each block holds one binder with its values, some of them ahead of it.

Tests used:
[1] = molecular target: T1, huNav1.7α + β1-β2-β3 (human Nav1.7α co-expressed with human Navβ1, Navβ2 and Navβ3 on cells) (human); assay: binding FACS, CHO FlpIn cells
T1 construct: also called huNav1.7-beta1-beta2-beta3; CHO FlpIn huNav1.7α + β1-β2-β3
Method: (§1) Binding of the ISVDs to cell-expressed Nav1.7α was detected via murine anti-Flag (Sigma, catalog #F1804). Briefly, cells were resuspended in FACS buffer (PBS, 10% FBS, NaN₃) and transferred to a 96-well V-bottom plate at 1×10^5 cells/well. Purified FLAG3-tagged ISVD was diluted in FACS buffer and added to the cells for 30 minutes at 4° C. […] Prior to the read-out, the samples were resuspended in 1 μg/mL propidium iodide (Sigma, catalog #P4170) to exclude dead cells. Between each step, the cells were centrifuged for 5 minutes at 200 grams and washed with 100 μL/well FACS buffer.

[2] = molecular target: T2, rhNav1.7α + β1-β2-β3 (rhesus monkey); assay: binding FACS, CHO FlpIn
T2 construct: also called rhNav1.7-beta1-beta2-beta3; rhNav1.7-β1-β2-β3
Method: as §1

[3] = molecular target: T3, huNav1.7α + β1-β2-β3 (human, UniProt Q15858 1-1988; A5A6L6 19-218; O60939 30-215; Q2KI11 23-215); assay: binding FACS, CHO FlpIn
T3 construct: also called huNav1.7-beta1-beta2-beta3; huNav1.7-β1-β2-β3
Method: as §1

[4] = molecular target: T4, huNav1.7α + β1-β2-β3 (human, UniProt Q15858 1-1988; A5A6L6 19-218; O60939 30-215; Q2KI11 23-215); assay: binding FACS, CHO FlpIn cells
T4 construct: Cell line (CHO FlpIn, HEK FlpIn, transient HEK293T) is named under assay; also called huNav1.7-beta1-beta2-beta3; human Nav1.7α with Navβ1, Navβ2 and Navβ3
Method: as §1

[5] = molecular target: T5, rhNav1.7α + β1-β2-β3 (rhesus monkey); assay: binding FACS, CHO FlpIn cells
T5 construct: also called rhNav1.7-beta1-beta2-beta3; rhesus Nav1.7α
Method: as §1

B1: F010302316 (VHH)
VHH: EVQLVESGGGVVQPGGSLRLSCAASGPVFNINRMAWYRQAPGKQRELVAYVTPTGDISYADSVKGRFTISRDASKRVYLQMNSLRPEDTALYYCRALLQPRSYSITRTYWGQGTLVTVSS
notes: also called F0103387G04(L11V, A12V, K33R, R39Q, S50Y, S56D, T60A, G73A, W78V, S79Y, T83R, V89L, N93R, D99R, N100cI)-FLAG3-HIS6
Bmax [1]: 91% | EC50 [1]: 8.2 nM

B3: F010302321 (VHH)
VHH: B1 VHH with A73R, R101D, S102R
notes: also called F0103387G04(L11V, A12V, K33R, R39Q, S50Y, S56D, T60A, G73R, W78V, S79Y, T83R, V89L, N93R, S100R, N100cI)-FLAG3-HIS6
Bmax [1]: 91% | EC50 [1]: 7.9 nM

B7: F010302344 (VHH)
VHH: EVQLVESGGGVVQPGGSLRLSCAASHRQFIRDVFTGWYRQAPGKQRELVARIYNEGNTQYADSAKGRFTISRDNAKKTVYLQMNSLRPEDTALYYCLFSGTISTGREYRSGDYWGQGTLVTVSS
Bmax [2]: 78% | EC50 [2]: 13 nM | Bmax [3]: 100% | EC50 [3]: 4.3 nM

B8: F010302345 (VHH)
VHH: B7 VHH with N54E, E55G
Bmax [2]: 96% | EC50 [2]: 12 nM | Bmax [3]: 100% | EC50 [3]: 4.9 nM

B9: F010302335 (VHH)
VHH: B7 VHH with H26S, Q40R, N54E, E55S
Bmax [2]: 84% | EC50 [2]: 13 nM | Bmax [3]: 100% | EC50 [3]: 4.1 nM

B12: F010302336 (VHH)
VHH: B7 VHH with Q40R
Bmax [2]: 79% | EC50 [2]: 9.7 nM | Bmax [3]: 100% | EC50 [3]: 3.6 nM

B13: F010302343 (VHH)
VHH: B7 VHH with H26S, N54E, E55S
Bmax [2]: 84% | EC50 [2]: 18 nM | Bmax [3]: 100% | EC50 [3]: 6.4 nM

B14: F010302338 (VHH)
VHH: B7 VHH with Q28A, Q40R, N54E, E55S
Bmax [2]: 100% | EC50 [2]: 7.9 nM | Bmax [3]: 100% | EC50 [3]: 3.4 nM

B17: F010302358 (VHH)
VHH: B7 VHH with H26S, A64V
Bmax [4]: 100% | EC50 [4]: 4.5 nM | Bmax [5]: 37% | EC50 [5]: 37 nM

B18: F010302353 (VHH)
VHH: B7 VHH with Q40R, N54E, E55G, A64V
Bmax [4]: 100% | EC50 [4]: 4.2 nM | Bmax [5]: 93% | EC50 [5]: 7.9 nM

Continued, values first:

Bmax [1]: 89% | EC50 [1]: 11 nM
B2: F010302318 (VHH)
VHH: B1 VHH with A73G, R101D, S102R
notes: also called F0103387G04(L11V, A12V, K33R, R39Q, S50Y, S56D, T60A, W78V, S79Y, T83R, V89L, N93R, S100R, N100cI)

Bmax [1]: 42% | EC50 [1]: 29 nM
B4: F010302324 (VHH)
VHH: B1 VHH with A73R, S102R
notes: also called F0103387G04(L11V, A12V, K33R, R39Q, S50Y, S56D, T60A, G73R, W78V, S79Y, T83R, V89L, N93R, D99R, S100R, N100cI)

Bmax [1]: 88% | EC50 [1]: 15 nM
B5: F010302319 (VHH)
VHH: B1 VHH with R101D, S102R
notes: also called F0103387G04(L11V, A12V, K33R, R39Q, S50Y, S56D, T60A, G73A, W78V, S79Y, T83R, V89L, N93R, S100R, N100cI)-FLAG3-HIS6

Bmax [2]: 70% | EC50 [2]: 11 nM | Bmax [3]: 100% | EC50 [3]: 4 nM
B6: F010302334 (VHH)
VHH: B7 VHH with H26S, Q40R

Bmax [2]: 61% | EC50 [2]: 16 nM | Bmax [3]: 100% | EC50 [3]: 4 nM
B10: F010302342 (VHH)
VHH: B7 VHH with H26S

Bmax [2]: 96% | EC50 [2]: 13 nM | Bmax [3]: 100% | EC50 [3]: 4.6 nM
B11: F010302340 (VHH)
VHH: B7 VHH with Q28A, V33L, Q40R, N54E, E55S, Q59N

Bmax [4]: 100% | EC50 [4]: 5 nM | Bmax [5]: 99% | EC50 [5]: 12 nM
B15: F010302346 (VHH)
VHH: B7 VHH with Q28A, N54E, E55S

Bmax [4]: 100% | EC50 [4]: 3.6 nM | Bmax [5]: 60% | EC50 [5]: 11 nM
B16: F010302352 (VHH)
VHH: B7 VHH with Q40R, A64V
